Assay results: US11998613B2, “Antibody-drug conjugates containing an anti-mesothelin antibody and uses thereof” (DEVELOPMENT CENTER FOR BIOTECHNOLOGY, priority 2020, dated 2024)
Read-outs that look alike come from different tables or passages of the source. Non-standard residues stand in square brackets, D forms with d. Residues, ends and D or L forms follow the SMILES beside them. *: point of attachment. Dolaproine = CO[C@@H]([C@@H]1CCCN1)[C@@H](C)C(=O)O; Dil = CC[C@H](C)[C@H](NC)[C@@H](CC(=O)O)OC; X1 = C[C@@H](N*)[C@@H](O)c1ccccc1; NMeV = CN[C@H](C(=O)O)C(C)C

B1: DCBPR2002-2(DBCO-vc-MMAE)-2(DBCO-vc-seco-DUBA): dual-payload ADC: DCBPR2002-2(DBCO-vc-MMAE)-2Az reacted with DBCO-vc-seco DUBA; DAR ~4 (conjugate)
VH: QVQLVQSGAEVKKPGASVKVSCKASGYSFTGYTMNWVRQAPGQGLEWMGLITPYNGASSYNQKFRGRVTMTRDTSISTAYMELSRLRSDDTAVYYCARGGYDGRGFDYWGQGTLVTVSS
VL: EIVLTQSPATLSLSPGERATLSCSASSSVSYMHWYQQKPGQAPRLLIYDTSKLASGIPARFSGSGSGTDFTLTISSLEPEDFAVYYCQQWSKHPLTFGQGTKVEIKR
B2: DCBPR2002-2(DBCO-vc-MMAE)-2(DBCO-s-DM1): dual-payload ADC: DCBPR2002-2(DBCO-vc-MMAE)-2Az reacted with DBCO-S-DM1; DAR ~4 (conjugate)
VH: B1 VH
VL: B1 VL
B3: DCBPR2002-4(DBCO-s-DM1) (conjugate)
VH: B1 VH
VL: B1 VL
B4: DCBPR2002-2(DBCO-vc-seco-DUBA)-2(DBCO-s-DM1): dual-payload ADC: DCBPR2002-2(DBCO-vc-seco DUBA)-2Az reacted with DBCO-S-DM1; DAR ~4 (conjugate)
VH: B1 VH
VL: B1 VL

Legend:
[1] = system: Ovarian carcinoma cell line OVCAR-3 (MSLN+); experiment: In vitro cytotoxicity, CellTiter-Glo luminescent cell viability assay, OVCAR-3; format: cell-based, human; details: read-out: Relative IC50 (nM of toxic payload/ADCs)
Experimental: (§1) The KLM-1 & OVCAR-3 cell lines were maintained in an atmosphere of 5% CO2 in a humidified 37° C. incubator. The day before treatment, cells were collected and seeded into 96-well plates (4,000 cells per well). On the second day, cells were treated with 3-fold serial dilution concentration of toxic payloads and ADCs. Each treatment was performed in eight triplicate data points. After the treatment of 72 hours, cell viability was assessed by CellTiter-Glo® kit (Promega) according to the manufacturer's instruction. At the end of the incubation, luminescence was measured using a SpectraMax i3x Multi Mode Detection Platform (Molecular Devices). Compound cytotoxicity was evaluated in comparison to cells treated with 0.05% PBS (ADCs) or 0.05% DMSO (toxic payload). IC50 values were calculated by fitting viability data with a four-parameter logistic equation using GraphPad prism 5.0 software.

[2] = system: Pancreatic cancer cell line KLM-1 (MSLN+); experiment: In vitro cytotoxicity, CellTiter-Glo luminescent cell viability assay, KLM-1; format: cell-based, human; details: KLM-1, 72 hours treatment; read-out: Relative IC50 (nM of toxic payload/ADCs)
Experimental: as §1, with “Pancreatic cancer cell line KLM-1 was respectively grown in RPMI 1640 Medium (ATCC modification) medium supplemented with 10% fetal bovine serum. Ovarian carcinoma cell line OVCAR-3 was grown in RPMI 1640 Medium (ATCC modification) medium supplemented with 20% fetal bovine serum. The KLM-1” for “The KLM-1”

[3] = molecular target: T1, mesothelin protein (Homo sapiens, UniProt Q13421); experiment: Affinity measurements and kinetic analysis using BIAcore (SPR), mesothelin immobilised; format: binding
T1 sequence (Q13421 with tags, fused parts or gaps): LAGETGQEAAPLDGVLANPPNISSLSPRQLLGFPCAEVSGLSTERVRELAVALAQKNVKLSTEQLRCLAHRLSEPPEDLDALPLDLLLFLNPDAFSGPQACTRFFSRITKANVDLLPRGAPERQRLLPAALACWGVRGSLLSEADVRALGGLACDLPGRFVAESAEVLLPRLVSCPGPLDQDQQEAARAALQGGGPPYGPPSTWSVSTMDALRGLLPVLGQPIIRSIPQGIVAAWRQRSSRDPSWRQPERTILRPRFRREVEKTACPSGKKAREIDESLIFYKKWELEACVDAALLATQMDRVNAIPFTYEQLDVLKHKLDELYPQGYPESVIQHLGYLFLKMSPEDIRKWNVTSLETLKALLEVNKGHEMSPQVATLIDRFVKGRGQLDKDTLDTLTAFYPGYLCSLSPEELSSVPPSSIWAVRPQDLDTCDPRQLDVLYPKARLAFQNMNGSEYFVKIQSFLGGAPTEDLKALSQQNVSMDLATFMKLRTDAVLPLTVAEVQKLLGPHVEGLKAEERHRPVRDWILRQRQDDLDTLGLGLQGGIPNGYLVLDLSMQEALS
Experimental: To know the biding kinetics difference among individual antibodies, surface plasmon resonance (SPR) measurement with a BIAcore T200 (Cytiva Inc.) was used as previously described (Karlsson & Falt, (1997) J. Immunol Methods 200:121-133). Carboxymethylated dextran biosensor chips (CM5, Cytiva Inc.) were activated with N-ethyl-N′-(3-dimethylaminopropyl)-carbodiimide hydrochloride (EDC) and N-hydroxysuccinimide (NHS) according to the supplier's instructions. Mesothelin protein was diluted with 10 mM sodium acetate, pH 4.0, into 5 μg/ml before injection at a flow rate of 10 μL/minute to achieve approximately 1500 response units (RU) of coupled protein followed by the injection of 1M ethanolamine to block unreacted groups. For kinetics measurements, two-fold serial dilutions of anti-mesothelin mAb (0.3125 nM to 40 nM) were injected in HBS-EP+ Biacore running buffer provided by the manufacturer (Cytiva Inc.) at 25 degree C. at a flow rate of 30 μL/min, and binding responses on the mesothelin protein were corrected by subtraction of responses on a blank flow cell. Association rates (kon or ka) and dissociation rates (koff or kd) were calculated using a simple one-to-one Langmuir binding model with separate fittings of kon and koff was used. (Cytiva.™. Biacore Insight Evaluation Software).

[4] = molecular target: T1, mesothelin protein; experiment: Binding kinetics of anti-mesothelin ADCs by surface plasma resonance (Biacore T100); details: analyte MSLN
Experimental: The kinetic constant of the anti-mesothelin ADCs interaction against mesothelin was determined by surface plasma resonance (Biacore® T100, Biacore, Inc., Piscataway, NJ). The flow cell of the CM5 wafer was fixed with approximately 10,000 reaction units (RU) of anti-human IgG-Fc (Biacore®) in 10 mM glycine pH 5.0 at 10 μL/min for 600 seconds. 10 μg/mL of anti-mesothelin antibody and anti-mesothelin ADCs diluted in TBS at 10 μl/min were captured on CM5 chips. Four concentrations (from 3.7 to 100 nM) of human mesothelin recombinant protein and zero concentration (flow buffer) in 100 μl/min binding were recorded in PBS containing 1 mM CaCl2 for 3 minutes. The dissociation of the complex was measured for 10 minutes. The water surface was regenerated by injecting 3 M MgCl2 and 3 mM EGTA at 10 μl/min for 60 seconds. The curve obtained after subtracting the reference and buffer signals was taken into the 1:1 Langmuir binding model using the Biacore® T100 evaluation software (Biacore®).

[5] = system: KLM-1 human pancreatic cancer xenograft; experiment: KLM-1 xenograft model (Example 45); details: 15 mg/kg IV once weekly for 3 weeks
Experimental: Formulations respectively comprising test article DCBPR2002-4(DBCO-vc-MMAE)(15 mg/kg), test article DCBPR2002-4(DBCO-vc-seco-DUBA)(15 mg/kg), test article DCBPR2002-4(DBCO-s-DM1) (15 mg/kg), test article DCBPR2002-2(DBCO-vc-MMAE)-2(DBCO-vc-seco-DUBA) (15 mg/kg), test article DCBPR2002-2(DBCO-vc-MMAE)-2(DBCO-s-DM1) (15 mg/kg), test article DCBPR2002-2(DBCO-vc-seco-DUBA)-2(DBCO-s-DM1) (15 mg/kg), and a corresponding vehicle were formulated by diluting the stock with a 25 mM sodium citrate buffer (pH6.5). Each of the formulations was administered intravenously (IV) once weekly for three weeks.
The KLM-1 cells were maintained in vitro as a monolayer culture in RPMI-1640 medium supplemented with 10% fetal bovine serum at 37° C. in an atmosphere of 5% CO2 in air. The tumor cells were routinely sub-cultured twice weekly by trypsin-EDTA treatment. The cells growing in an exponential growth phase were harvested and counted for tumor inoculation.
Male NOD SCID mice at age of 6-7 weeks were purchased from BioLasco Taiwan Co., LTD. and quarantined for one week. Five mice were housed in each cage. All animals were hosted in the animal facility with a 12-h light/12-h dark cycle at 19-25° C. Animals had free access to rodent pellet foods and water ad libitum.
KLM-1 cells were subcutaneously (SC) implanted (4×10^6 cells in 1:1 PBS/matrigel mixture at 0.1 mL per mouse) into the right flank of male NOD SCID mice. When the average tumor volume had reached 300 mm^3, the mice were randomly divided into 7 groups (N=6 per group). Each of the vehicle, DCBPR2002-4(DBCO-vc-MMAE), DCBPR2002-4(DBCO-vc-seco-DUBA), DCBPR2002-4(DBCO-s-DM1), DCBPR2002-2(DBCO-vc-MMAE)-2(DBCO-vc-seco-DUBA), DCBPR2002-2(DBCO-vc-MMAE)-2(DBCO-s-DM1), DCBPR2002-2(DBCO-vc-seco-DUBA)-2(DBCO-s-DM1) was intravenously administered as 15 mg/kg once weekly for 3 weeks.
The tumor volumes, body weights, mortality, and signs of overt toxicity were monitored and recorded three times weekly for 28 days. Tumor volumes were measured three times per week using calipers and calculated according to the formula: Tumor Volume=(w2×l)/2, where w=width and l=length in diameter (mm) of the tumor. […] One-way ANOVA followed by Dunnett's test was applied for comparison between the vehicle and test article-treated groups. Differences are considered significant at *P<0.05. Animals were weighed three times weekly until the completion of the study.

[6] = BIAcore T200, 25 degree C, 1:1 Langmuir model

Molecule	IC50 ([1]; OVCAR-3, 72 hours treatment) [nM]	IC50 [2] [nM]	body weight changes [5]	ranking of efficacy potency [5]	also measured
CC[C@H](C)[C@@H]([C@@H](CC(=O)N1CCC[C@H]1[C@H](OC)[C@@H](C)C(=O)N[C@H](C)[C@@H](O)c1ccccc1)OC)N(C)C(=O)[C@@H](NC(=O)[C@@H](NC)C(C)C)C(C)C [MMAE, monomethyl auristatin E, reference compound] (H-[NMeV]V[Dil][Dolaproine]-X1)	0.3	0.3	–	–	–
CC[C@@]1(O)C(=O)OCc2c1cc1n(c2=O)Cc2c-1nc1cc(F)c(C)c3c1c2[C@@H](N)CC3 [Exatecan, reference compound]	–	–	–	–	IC50 ([1]; Homo sapiens, OVCAR-3, 72 h): 20.1 nM
COc1cc2cc(c1Cl)N(C)C(=O)C[C@H](OC(=O)[C@H](C)N(C)C(=O)CCS)[C@]1(C)O[C@H]1[C@H](C)[C@@H]1C[C@@](O)(NC(=O)O1)[C@H](OC)/C=C/C=C(\C)C2 [DM1, reference compound]	1.6	2.1	–	–	–
CC[C@@]1(O)C(=O)OCc2c1cc1n(c2=O)Cc2c-1nc1cc(F)c(C)c3c1c2[C@@H](NC(=O)CO)CC3 [DXd, reference compound]	> 100	–	–	–	–
SS1: mouse anti-mesothelin antibody clone SS1, SEQ ID NOs: 7 and 8, of U.S. Pat. No. 7,081,518 B1; expressed as human Fc chimera [reference compound]	–	–	–	–	Rmax(RU) ([3]; BIAcore T200): 218.2 RU; ka [3, 6]: 3.415e+06 M⁻¹ s⁻¹; kd [3, 6]: 1.194e-05 s⁻¹; kd ([3]; BIAcore T200, 25 degree C, 1:1 Langmuir model, listed as chimera SS1 mAb): 1.194e-05 s⁻¹
B1	43.3	46	No body weight loss was observed	DCBPR2002-4(DBCO-vc-seco-DUBA)=DCBPR2002-2(DBCO-vc-MMAE)-2(DBCO-vc-seco-DUBA)=DCBPR2002-2(DBCO-vc-seco-DUBA)-2(DBCO-s-DM1)>DCBPR2002-4(DBCO-vc-MMAE)>DCBPR2002-2(DBCO-vc-MMAE)-2(DBCO-s-DM1)>DCBPR2002-4(DBCO-s-DM1)	Rmax(RU) [4]: 50.98 RU; Ka ([4]; antibody/ADC captured on CM5 chip via anti-human IgG-Fc): 4.752E+6; dissociation rate constant (koff) ([4]; dissociation rate, antibody/ADC captured on CM5 chip): 1.218E−4
B2	4.6	15.4	No body weight loss was observed	DCBPR2002-4(DBCO-vc-seco-DUBA)=DCBPR2002-2(DBCO-vc-MMAE)-2(DBCO-vc-seco-DUBA)=DCBPR2002-2(DBCO-vc-seco-DUBA)-2(DBCO-s-DM1)>DCBPR2002-4(DBCO-vc-MMAE)>DCBPR2002-2(DBCO-vc-MMAE)-2(DBCO-s-DM1)>DCBPR2002-4(DBCO-s-DM1)	–
B3	2.6	13.9	No body weight loss was observed	DCBPR2002-4(DBCO-vc-seco-DUBA)=DCBPR2002-2(DBCO-vc-MMAE)-2(DBCO-vc-seco-DUBA)=DCBPR2002-2(DBCO-vc-seco-DUBA)-2(DBCO-s-DM1)>DCBPR2002-4(DBCO-vc-MMAE)>DCBPR2002-2(DBCO-vc-MMAE)-2(DBCO-s-DM1)>DCBPR2002-4(DBCO-s-DM1)	–
B4	36.3	27	No body weight loss was observed	DCBPR2002-4(DBCO-vc-seco-DUBA)=DCBPR2002-2(DBCO-vc-MMAE)-2(DBCO-vc-seco-DUBA)=DCBPR2002-2(DBCO-vc-seco-DUBA)-2(DBCO-s-DM1)>DCBPR2002-4(DBCO-vc-MMAE)>DCBPR2002-2(DBCO-vc-MMAE)-2(DBCO-s-DM1)>DCBPR2002-4(DBCO-s-DM1)	–
